The text below walks through data of paper PMC9468356, “Kinetic compartmentalization by unnatural reaction for itaconate production” (Nature Communications, 2022).

Substrate in series [1]: CC(C(=O)O)C(O)(CC(=O)O)C(=O)O
Description: HPLC end-point assay. Type of series: biochemical, Escherichia coli. The settings on record: 2 mM Tris-HCl, 37 °C, 10 min, 0.1-1 mM substrate. The source says: (§1) HPLC end-point assay on PrpD

Substrate in series [2]: O=C(O)/C=C(/CC(=O)O)C(=O)O
Description: HPLC end-point assay. Type of series: biochemical, Escherichia coli. The settings on record: 2 mM Tris-HCl, 37 °C, 10 min, 0.05-1.0 mM substrate.
Text: as §1

B1: PrpD (Escherichia coli K-12; G111T/W110V) (protein)
chain: SAQINNIRPEFDREIVDIVDYVMNYEISSKVAYDTAHYCLLDTLGCGLEALEYPACKKLLGPIVPGTVVPNGVRVPGTQFQLDPVQAAFNIGAMIRWLDFNDTWLAAEVTHPSDNLGGILATADWLSRNAVASGKAPLTMKQVLTAMIKAHEIQGCIALENSFNRVGLDHVLLVKVASTAVVAEMLGLTREEILNAVSLAWVDGQSLRTYRHAPNTGTRKSWAAGDATSRAVRLALMAKTGEMGYPSALTAPVWGFYDVSFKGESFRFQRPYGSYVMENVLFKISFPAEFHSQTAVEAAMTLYEQMQAAGKTAADIEKVTIRTHEACIRIIDKKGPLNNPADRDHCIQYMVAIPLLFGRLTAADYEDNVAQDKRIDALREKINCFEDPAFTADYHDPEKRAIANAITLEFTDGTRFEEVVVEYPIGHARRRQDGIPKLVDKFKINLARQFPTRQQQRILEVSLDRARLEQMPVNEYLDLYVI
notes: 6xHis-tagged, cloned from E. coli W into pACYCduet-1, purified anaerobically by His-tag kit
The term Km denotes the substrate concentration at which the rate is half of its maximum. Broadly, the kcat is the number of substrate molecules converted per active site and unit of time at saturation. A word on the kcat/Km: it is the second-order rate constant that governs catalysis at low substrate concentration. B1: in “HPLC end-point assay [1]”, the Km is 1930 ± 210 µM, the kcat was determined as 0.023 ± 0.008 s⁻¹ and the kcat/Km stood at 12 ± 6 M⁻¹ s⁻¹. For the same protein, in the series “HPLC end-point assay [2]”, the Km came out at 1720 ± 250 µM, the catalytic constant (kcat) turned out to be 172 ± 20 s⁻¹ and the kcat/Km was determined as 101000 ± 3180 M⁻¹ s⁻¹.

B2: PrpD (Escherichia coli K-12) (protein)
chain: SAQINNIRPEFDREIVDIVDYVMNYEISSKVAYDTAHYCLLDTLGCGLEALEYPACKKLLGPIVPGTVVPNGVRVPGTQFQLDPVQAAFNIGAMIRWLDFNDTWLAAEWGHPSDNLGGILATADWLSRNAVASGKAPLTMKQVLTAMIKAHEIQGCIALENSFNRVGLDHVLLVKVASTAVVAEMLGLTREEILNAVSLAWVDGQSLRTYRHAPNTGTRKSWAAGDATSRAVRLALMAKTGEMGYPSALTAPVWGFYDVSFKGESFRFQRPYGSYVMENVLFKISFPAEFHSQTAVEAAMTLYEQMQAAGKTAADIEKVTIRTHEACIRIIDKKGPLNNPADRDHCIQYMVAIPLLFGRLTAADYEDNVAQDKRIDALREKINCFEDPAFTADYHDPEKRAIANAITLEFTDGTRFEEVVVEYPIGHARRRQDGIPKLVDKFKINLARQFPTRQQQRILEVSLDRARLEQMPVNEYLDLYVI
notes: as for B1
As for B2, in “HPLC end-point assay [1]”, the Km stood at 960 ± 850 µM, the kcat amounted to 0.045 ± 0.025 s⁻¹ and the kcat/Km came out at 75 ± 54 M⁻¹ s⁻¹. Also, in “HPLC end-point assay [2]”, the Km stood at 700 ± 100 µM, the kcat was 119 ± 13.4 s⁻¹ and the kcat/Km was determined as 171000 ± 5650 M⁻¹ s⁻¹.

B3: PrpD (Escherichia coli K-12; I331L/W110V) (protein)
chain: SAQINNIRPEFDREIVDIVDYVMNYEISSKVAYDTAHYCLLDTLGCGLEALEYPACKKLLGPIVPGTVVPNGVRVPGTQFQLDPVQAAFNIGAMIRWLDFNDTWLAAEVGHPSDNLGGILATADWLSRNAVASGKAPLTMKQVLTAMIKAHEIQGCIALENSFNRVGLDHVLLVKVASTAVVAEMLGLTREEILNAVSLAWVDGQSLRTYRHAPNTGTRKSWAAGDATSRAVRLALMAKTGEMGYPSALTAPVWGFYDVSFKGESFRFQRPYGSYVMENVLFKISFPAEFHSQTAVEAAMTLYEQMQAAGKTAADIEKVTIRTHEACIRLIDKKGPLNNPADRDHCIQYMVAIPLLFGRLTAADYEDNVAQDKRIDALREKINCFEDPAFTADYHDPEKRAIANAITLEFTDGTRFEEVVVEYPIGHARRRQDGIPKLVDKFKINLARQFPTRQQQRILEVSLDRARLEQMPVNEYLDLYVI
notes: as for B1
In the case of B3, in the series “HPLC end-point assay [1]”, the Km worked out at 1720 ± 540 µM, the kcat amounted to 0.035 ± 0.009 s⁻¹ and the kcat/Km worked out at 21 ± 2 M⁻¹ s⁻¹. Further, in the series “HPLC end-point assay [2]”, the Km was determined as 1520 ± 80 µM, the kcat stood at 96.3 ± 4.55 s⁻¹ and the kcat/Km came to 63600 ± 3330 M⁻¹ s⁻¹.

B4: PrpD (Escherichia coli K-12; G111T/I331L/W110V) (protein)
chain: SAQINNIRPEFDREIVDIVDYVMNYEISSKVAYDTAHYCLLDTLGCGLEALEYPACKKLLGPIVPGTVVPNGVRVPGTQFQLDPVQAAFNIGAMIRWLDFNDTWLAAEVTHPSDNLGGILATADWLSRNAVASGKAPLTMKQVLTAMIKAHEIQGCIALENSFNRVGLDHVLLVKVASTAVVAEMLGLTREEILNAVSLAWVDGQSLRTYRHAPNTGTRKSWAAGDATSRAVRLALMAKTGEMGYPSALTAPVWGFYDVSFKGESFRFQRPYGSYVMENVLFKISFPAEFHSQTAVEAAMTLYEQMQAAGKTAADIEKVTIRTHEACIRLIDKKGPLNNPADRDHCIQYMVAIPLLFGRLTAADYEDNVAQDKRIDALREKINCFEDPAFTADYHDPEKRAIANAITLEFTDGTRFEEVVVEYPIGHARRRQDGIPKLVDKFKINLARQFPTRQQQRILEVSLDRARLEQMPVNEYLDLYVI
notes: as for B1
On to B4, for which, in the series “HPLC end-point assay [1]”, the Michaelis-Menten constant (Km) is 1960 ± 210 µM, the kcat came out at 0.024 ± 0.008 s⁻¹ and the kcat/Km is 13 ± 5 M⁻¹ s⁻¹. Besides, in “HPLC end-point assay [2]”, the Km was 720 ± 100 µM, the kcat turned out to be 81.8 ± 14.1 s⁻¹ and the kcat/Km worked out at 114000 ± 14600 M⁻¹ s⁻¹.
